Read-outs that look alike come from different tables or passages of the source.
Legend:
[1] = target: Streptococcus thermophilus QueG (epoxyqueuosine reductase) (Streptococcus thermophilus); assay: native MS; nano-ESI, Waters Synapt G2, protein at 3-30 uM in anaerobic 100 mM ammonium acetate pH 6.8; monomer to dimer
[2] = target: Streptococcus thermophilus QueG (epoxyqueuosine reductase) (Streptococcus thermophilus); assay: as above; remark: listed apart in the source

proportion of dimer [1]: 5%
stoichiometry N [1]: 2
proportion of dimer [2]: < 5%
Substance: Streptococcus thermophilus QueG (epoxyqueuosine reductase) (enzyme)

Reference: PMC4646009
